Molecular target: T1, vipoxin basic and toxic phospholipase A2 subunit (Vipera ammodytes meridionalis, UniProt P14420 1-122)
T1 sequence: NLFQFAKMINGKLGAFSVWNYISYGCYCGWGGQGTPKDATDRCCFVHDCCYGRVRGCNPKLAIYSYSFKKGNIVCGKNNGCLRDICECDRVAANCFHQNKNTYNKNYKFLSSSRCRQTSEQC
Experiment: cell-based or functional assay

B1: vipoxin's acidic component (natural protein)
chain: NLFQFGDMILQKTGKEAVHSYAIYGCYCGWGGQGRAQDATDRCCFAQDCCYGRVNDCNPKTATYTYSFENGDIVCGDNDLCLRAVCECDRAAAICLGENVNTYDKNYEYYSISHCTEESEQC
  residual PLA2 enzyme activity (NOBA substrate) of reconstituted complex PLA2 + VAC (1:1 molar ratio), pre-incubation 1 min to 24 h (100, 120, 115, 114, 114, 113, 108, 78 %): 120%

— article PMC3600519, “Acute toxicity of vipoxin and its components: is the acidic component an “inhibitor” of PLA2 toxicity?” (Interdisciplinary Toxicology, 2012)
